This series deals with GST-p53 (UniProt P04637). Nature of the series: fluorescence polarization. The conditions noted are these: FP: 4 nM FAM duplex, 100 mM NaCl, 10 mM Tris-HCl pH 7.5, 10% glycerol, 5 mM DTT, 0.2 mg/mL BSA, room temperature; pull-down: 2 ug duplex with lysate, 90 min …. In general terms: In fluorescence polarisation assays a small probe gives low polarisation when free and higher when bound to something large.

The term Kd denotes the free concentration of one partner at which half of the binding sites on the other are occupied at equilibrium, for simple one-to-one binding. A higher Kd goes with a looser complex.

GST-p53, sequence (P04637 whole entry): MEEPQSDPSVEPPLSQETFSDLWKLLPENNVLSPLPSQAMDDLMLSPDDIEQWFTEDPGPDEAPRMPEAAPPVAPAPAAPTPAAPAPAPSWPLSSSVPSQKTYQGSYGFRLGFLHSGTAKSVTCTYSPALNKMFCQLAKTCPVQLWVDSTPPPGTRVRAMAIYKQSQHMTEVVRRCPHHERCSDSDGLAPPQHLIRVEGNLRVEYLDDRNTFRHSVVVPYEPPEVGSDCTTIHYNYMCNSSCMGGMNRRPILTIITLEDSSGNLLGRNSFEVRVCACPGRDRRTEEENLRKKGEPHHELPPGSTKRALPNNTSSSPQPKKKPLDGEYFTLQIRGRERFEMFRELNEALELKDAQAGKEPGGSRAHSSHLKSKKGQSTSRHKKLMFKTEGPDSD

In the case of “CGCGCCTGCAAGTCCTGACTTGTCCGCGGC (double strand) [PUMA promoter duplex, FAM]”, the equilibrium dissociation constant (Kd) stood at 29.6 nM.

The values are drawn from article PMC4226670.
